Measurements taken from patent US20160355587A1 (CYTOMX THERAPEUTICS, published 2016).

Target: T1, human CD166 protein (human, UniProt Q13740 28-526, limits assumed)
T1 construct: Isolated human CD166 protein coated on ELISA plates; also called ALCAM
T1 sequence (looked up): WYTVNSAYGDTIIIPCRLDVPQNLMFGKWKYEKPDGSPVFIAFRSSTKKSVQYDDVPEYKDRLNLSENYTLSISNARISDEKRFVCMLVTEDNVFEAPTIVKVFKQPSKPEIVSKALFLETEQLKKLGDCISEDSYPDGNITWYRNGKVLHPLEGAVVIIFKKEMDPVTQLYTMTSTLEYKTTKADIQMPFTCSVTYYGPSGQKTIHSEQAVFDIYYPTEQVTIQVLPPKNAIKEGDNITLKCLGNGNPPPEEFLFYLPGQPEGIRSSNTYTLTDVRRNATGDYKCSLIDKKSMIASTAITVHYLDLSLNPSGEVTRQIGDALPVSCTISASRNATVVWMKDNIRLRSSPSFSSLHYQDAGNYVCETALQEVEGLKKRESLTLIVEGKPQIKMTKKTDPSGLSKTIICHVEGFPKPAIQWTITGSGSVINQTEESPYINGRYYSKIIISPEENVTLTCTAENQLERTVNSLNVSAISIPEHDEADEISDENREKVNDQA
Experiment: ELISA, human CD166 protein coated; positive control
Method: The antibody CD166-M9 antibody comprising VH of SEQ ID NO: 119, VL of SEQ ID NO: 120 was used a positive control, and an isotype control antibody was used a negative control.
Using a standard ELISA protocol, human CD166 protein was absorbed to ELISA plates and subsequently incubated with the indicated concentration of antibody. Bound antibody was detected with an anti-human FAB-peroxidase secondary.

binding result: binds
B1: CD166-M9 antibody (mouse anti-CD166 Mab M9) (antibody, V domains shown)
VH: QVTLKESGPGILQPSQTLSLTCSFSGFSLSTYGMGVGWIRQPSGKGLEWLANIWWSEDKHYNSALKSRLTISKDTSNNQVFLKISSVDTADTATYYCVQIDYGNDYAFTYWGQGTLVTVSA
VL: DIVMTQAAFSNPVTLGTSASISCRSSKSLLHSNGITYLYWYLQKPGQSPQLLIYQMSNLASGVPDRFSSSGSGTDFTLRISRVEAEDVGVYYCAQNLELPYTFGGGTKLEIKR
notes: Obtained by mouse hybridoma technology; also called M9 mAb; muM9
